Source: publication PMC10237670, “Biochemical properties of naturally occurring human bloom helicase variants”

Key:
[1] = target: T1, WT BLMcore (Homo sapiens, UniProt P54132 636-1298); assay: EMSA; 5 mM MgCl2; smear; estimated apparent KD; 50 mM Tris-HCl pH 7.5, 50 mM KCl, 5 mM MgCl2, 1 mM DTT, 0.1 mg/mL BSA, 40 nM DNA, 30 min room temperature; 5% gel in TBE + 100 mM KCl at 4 C; details: protein: recombinant, (HisTrap purified)
[2] = target: T1, WT BLMcore; assay: EMSA; 5 mM MgCl2; distinct shift; estimated apparent KD; 50 mM Tris-HCl pH 7.5, 50 mM KCl, 5 mM MgCl2, 1 mM DTT, 0.1 mg/mL BSA, 40 nM DNA, 30 min room temperature; 5% gel in TBE + 100 mM KCl at 4 C; details: protein: recombinant; (HisTrap purified); label: 3'-FAM on oAV320 (strand 2); 18 bp duplex, 3' overhang 39 nt on strand 1

T1 sequence (P54132 636-1298): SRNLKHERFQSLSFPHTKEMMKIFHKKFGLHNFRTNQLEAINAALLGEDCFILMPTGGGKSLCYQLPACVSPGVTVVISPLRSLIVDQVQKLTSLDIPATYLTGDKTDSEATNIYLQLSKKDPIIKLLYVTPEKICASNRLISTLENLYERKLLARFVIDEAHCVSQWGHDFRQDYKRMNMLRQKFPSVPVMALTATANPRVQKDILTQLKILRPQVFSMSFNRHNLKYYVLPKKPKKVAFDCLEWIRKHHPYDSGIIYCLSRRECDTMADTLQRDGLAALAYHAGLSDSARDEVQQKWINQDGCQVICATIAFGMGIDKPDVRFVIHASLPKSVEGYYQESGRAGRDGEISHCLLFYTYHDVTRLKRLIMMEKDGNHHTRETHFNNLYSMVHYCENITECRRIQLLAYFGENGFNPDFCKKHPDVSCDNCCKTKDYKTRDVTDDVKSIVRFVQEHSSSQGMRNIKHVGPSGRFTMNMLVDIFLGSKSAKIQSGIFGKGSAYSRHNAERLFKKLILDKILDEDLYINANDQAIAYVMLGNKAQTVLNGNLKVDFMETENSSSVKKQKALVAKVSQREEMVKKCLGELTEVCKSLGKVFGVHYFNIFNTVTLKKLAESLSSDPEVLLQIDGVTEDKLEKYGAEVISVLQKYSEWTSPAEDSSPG

GGGTTAGGGTTAGGGTTAGGGTTTTTTTTTT (structured_DNA) [G4 DNA with 3' ssDNA overhang (FAM-oRC96)]
Kd ([1]; label: 3'-FAM, intramolecular G4 (folded in 100 mM KCl) with 3' T-rich ssDNA tail): ~125 nM

B1: partial dsDNA with 3' ssDNA overhang (oRC32/FAM-oAV320) (dsDNA)
DNA 1: TGGCGACGGCAGCGAGGCTTAGGGTTAGCGTTAGCGTTAGGGTTTTTTTTTTTTTTT
DNA 2: GCCTCGCTGCCGTCGCCA
Kd [2]: ~79 nM

TTTTTTTTTTTTTTTTTTTTTTTTTTTTTT (ssDNA) [FAM-dT30 (ssDNA)]
Kd ([1]; single strand): ~125 nM
